Among the data in publication PMC11931385, “Structural and functional analysis of cancer-associated missense variants in the retinoblastoma protein pocket domain” (The Journal of Biological Chemistry, 2025) are Kd values, retold here.

Numbering of substitutions follows the chain as printed. Names and notes keep the numbering of the source. No end group written: not given here. TMR = tetramethyl rhodamine dye

What all share (test): fluorescence polarisation; 25 °C; unlabeled Rb^P titrated against 1.5 nM TMR-E2F1^TD or 7.5 nM TMR-E7^LxCxE; 25 mM Tris pH 8.0, 200 mM NaCl, 1 mM DTT, 0.1% Tween-20; 2 min incubation; quadratic fit; apparent Kd for the variants, Kd for WT
What all share (conditions): both partners purified

Test [1] addresses T1, Rb^P R741H (human, UniProt P06400 380-788, R741H).
T1 construct: also called variant 69
T1 sequence (looked up): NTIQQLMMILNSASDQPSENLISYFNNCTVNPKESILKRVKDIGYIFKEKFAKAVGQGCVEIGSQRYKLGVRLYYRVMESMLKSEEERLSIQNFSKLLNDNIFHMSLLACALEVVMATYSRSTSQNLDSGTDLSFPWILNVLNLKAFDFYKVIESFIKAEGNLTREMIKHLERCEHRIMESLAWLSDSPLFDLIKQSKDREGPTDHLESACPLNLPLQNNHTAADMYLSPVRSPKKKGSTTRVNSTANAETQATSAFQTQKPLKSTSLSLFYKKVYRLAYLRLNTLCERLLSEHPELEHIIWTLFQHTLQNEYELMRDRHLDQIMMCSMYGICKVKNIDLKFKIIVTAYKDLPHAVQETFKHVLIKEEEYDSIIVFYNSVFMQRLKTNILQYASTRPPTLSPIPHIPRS

The target in test [2] is T2, Rb^P H673Y (human, UniProt P06400 380-788, H673Y).
T2 construct: also called variant 55
T2 sequence (looked up): T1 sequence (looked up) with H294Y, H362R

Test [3] concerns the target T3, Rb^P M704V (human, UniProt P06400 380-788, M704V).
T3 construct: also called variant 66
T3 sequence (looked up): T1 sequence (looked up) with M325V, H362R

The target in test [4] is T4, Rb^P M695I (human, UniProt P06400 380-788, M695I).
T4 construct: also called variant 61
T4 sequence (looked up): T1 sequence (looked up) with M316I, H362R

The target of test [5] is T5, Rb^P S612P (human, UniProt P06400 380-788, S612P).
T5 construct: also called variant 39
T5 sequence (looked up): T1 sequence (looked up) with S233P, H362R

B1: TMR-E2F1^TD, peptide of the E2F1 transactivation domain (peptide)
peptide: {TMR}-GEGIRDLFDCDFGDLTPLD
notes: also called E2F^TD; source: synthetic peptide, bought: GenScript
For B1, the Kd in test [1] amounted to 21 nM; in test [2] it was 26 nM; in test [3], 41 nM; in test [4], 43 nM; in test [5], 32 nM.

B2: TMR-E7^LxCxE, LxCxE peptide of the E7 oncoprotein from HPV (peptide)
peptide: DLYCYEQLN
modifications: also: TMR label, position not given here
notes: source: synthetic peptide, bought: GenScript
As to B2, the Kd in test [1] was found to be 18 nM; in test [2] it was 10 nM; in test [3], 18 nM; in test [4], 11 nM; in test [5], 7 nM.
